In the data set the test system is T1, MIT 11-12x.40 meganuclease (MIT 11-12) (artificial (I-CreI derived, Chlamydomonas reinhardtii)).
T1 sequence: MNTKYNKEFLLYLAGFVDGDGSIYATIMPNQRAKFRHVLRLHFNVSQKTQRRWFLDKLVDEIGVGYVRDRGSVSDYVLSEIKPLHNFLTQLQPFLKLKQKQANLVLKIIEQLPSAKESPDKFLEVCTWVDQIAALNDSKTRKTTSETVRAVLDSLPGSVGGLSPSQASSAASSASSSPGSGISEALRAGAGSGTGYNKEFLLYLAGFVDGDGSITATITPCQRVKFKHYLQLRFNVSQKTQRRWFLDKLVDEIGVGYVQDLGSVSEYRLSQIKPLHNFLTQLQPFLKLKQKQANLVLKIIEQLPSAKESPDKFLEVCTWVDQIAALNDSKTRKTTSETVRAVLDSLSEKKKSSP
Briefly: cell_activity. To be noted: CHO split-GFP recombination assay, 48 h.

Activity data for one substance are collected here from patent US20240200046.

For wild-type mtDNA tRNA-Ala target site, the activity is less than 5 % GFP+ cells.
